± gives the standard error. For part of these data: Variants at the floor of the assay were thinned out.
B1: glmS ribozyme (parent)
chain: AUAAAAGCGCCAGAACUACAGAAAUGUAGUUGACGAGGAGGAGGUUUAUCGAAUUUUCGGCGGAUGCCUCCAAA

Assays:
Details in all cases: with glucosamine-6-phosphate
glucosamine-6-phosphate [1] = variants of: B1; experiment: kcat; higher = faster cleavage; RNA array
Procedure, shortened: (§1)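 Tiles of sequenced MiSeq chips were imaged over ~14 h at 37 °C. On them, barcoded ribozyme variants had been transcribed in situ by E. coli RNA polymerase and were tracked via a hybridised Cy3 probe while glucosamine-6-phosphate (40 μM to 10 mM) in HEPES/KCl/Mg(OAc)2 buffer flowed in. Per-tile medians, normalised to baseline and to non-cleaving reference variants, were fit to one- or two-exponential decays for kobs, and weighted Michaelis–Menten fits gave kcat and KM.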

glucosamine-6-phosphate [2] = variants of: B1; experiment: KM; higher = weaker cofactor use; RNA array
Procedure, shortened: as §1

glucosamine-6-phosphate [3] = variants of: B1; experiment: self-cleavage kobs at 40 uM GlcN6P; higher = faster cleavage; RNA array
Procedure, shortened: as §1

glucosamine-6-phosphate [4] = variants of: B1; experiment: self-cleavage kobs at 160 uM GlcN6P; higher = faster cleavage; RNA array
Procedure, shortened: as §1

glucosamine-6-phosphate [5] = variants of: B1; experiment: self-cleavage kobs at 640 uM GlcN6P; higher = faster cleavage; RNA array
Procedure, shortened: as §1

glucosamine-6-phosphate [6] = variants of: B1; experiment: self-cleavage kobs at 2500 uM GlcN6P; higher = faster cleavage; RNA array
Procedure, shortened: as §1

glucosamine-6-phosphate [7] = variants of: B1; experiment: self-cleavage kobs at 10000 uM GlcN6P; higher = faster cleavage; RNA array
Procedure, shortened: as §1

| Variant | kcat (glucosamine-6-phosphate [1]) [s⁻¹] | KM (glucosamine-6-phosphate [2]) [µM] | self-cleavage kobs at 40 uM GlcN6P (glucosamine-6-phosphate [3]) [s⁻¹] | self-cleavage kobs at 160 uM GlcN6P (glucosamine-6-phosphate [4]) [s⁻¹] | self-cleavage kobs at 640 uM GlcN6P (glucosamine-6-phosphate [5]) [s⁻¹] | self-cleavage kobs at 2500 uM GlcN6P (glucosamine-6-phosphate [6]) [s⁻¹] | self-cleavage kobs at 10000 uM GlcN6P (glucosamine-6-phosphate [7]) [s⁻¹] |
| --- | --- | --- | --- | --- | --- | --- | --- |
| C16G U54G | 0.00297 ± 0.00074 | 1080 ± 460 | 0.000177 ± 3.8e-05 | 0.000312 ± 6.7e-05 | 0.00211 ± 0.0008 | 0.00175 ± 0.0004 | 0.00291 ± 0.00046 |
| U49C C50G | < 1e-05 |  | < 1e-05 | < 1e-05 |  |  | < 1e-05 |
| U56G U69G | 4.9e-05 ± 9e-06 |  |  |  | 8.25e-05 ± 1.5e-05 | 4.98e-05 ± 1.3e-05 | 4.12e-05 ± 7.4e-06 |
| G41A G66U | 8e-05 ± 4.8e-06 | 2190 ± 390 |  |  | 2.19e-05 ± 1e-05 | 4.07e-05 ± 7.8e-06 | 6.65e-05 ± 8.4e-06 |
| G32A C50U C70A | 3.48e-05 ± 1.3e-05 |  |  |  |  | 5.7e-05 ± 1.9e-05 |  |
| A6U U49A | < 1e-05 |  |  | < 1e-05 |  |  | < 1e-05 |
| G32A C67U | 0.000858 ± 0.0002 | 1940 ± 760 |  | 7.5e-05 ± 1.5e-05 | 0.00023 ± 2.1e-05 | 0.000374 ± 4.7e-05 | 0.000854 ± 8.5e-05 |
| A12G A64C | < 1e-05 |  | < 1e-05 |  |  |  |  |
| C61A C67G | 2.3e-05 ± 5e-06 |  |  |  | 2.63e-05 ± 1.3e-05 |  |  |
| G32C U47G | 1.21e-05 ± 1.1e-07 | 403 ± 39 |  |  |  |  |  |
| G13C U54A | 0.000202 ± 4.2e-05 | 8810 ± 3600 |  |  |  | 4.26e-05 ± 8.3e-06 | 0.000108 ± 7.3e-06 |
| A48G C50A G63A | < 1e-05 |  |  | < 1e-05 |  |  | < 1e-05 |
| C10A C71G | 3.78e-05 ± 1.3e-05 |  |  |  | 5.99e-05 ± 2e-05 |  |  |
| U54G C70A | 0.000123 ± 2.4e-05 |  | 8.02e-05 ± 1.4e-05 | 7.71e-05 ± 1.8e-05 | 0.000198 ± 2.9e-05 | 0.000143 ± 2.9e-05 | 0.000109 ± 1.6e-05 |
| C10A U57C C61U | < 1e-05 |  |  |  |  |  | < 1e-05 |
| A14G G35C | < 1e-05 |  | < 1e-05 | < 1e-05 | < 1e-05 | < 1e-05 |  |
| C10A C68A | 1.98e-05 ± 3.8e-06 |  |  |  |  |  |  |
| A12C G59C | 1.09e-05 ± 2.5e-06 |  |  |  |  |  |  |
| C11G G63A C68U | < 1e-05 |  |  |  |  |  |  |

| Variant | kcat (glucosamine-6-phosphate [1]) [s⁻¹] | KM (glucosamine-6-phosphate [2]) [µM] | self-cleavage kobs at 40 uM GlcN6P (glucosamine-6-phosphate [3]) [s⁻¹] | self-cleavage kobs at 160 uM GlcN6P (glucosamine-6-phosphate [4]) [s⁻¹] | self-cleavage kobs at 640 uM GlcN6P (glucosamine-6-phosphate [5]) [s⁻¹] | self-cleavage kobs at 2500 uM GlcN6P (glucosamine-6-phosphate [6]) [s⁻¹] | self-cleavage kobs at 10000 uM GlcN6P (glucosamine-6-phosphate [7]) [s⁻¹] |
| --- | --- | --- | --- | --- | --- | --- | --- |
| U46C A52U | 0.0006 ± 0.00022 |  | < 1e-05 |  | 3.24e-05 ± 1.6e-05 | 6.32e-05 ± 1.1e-05 | 0.000199 ± 2.3e-05 |
| A39C G43U C68U | 9.32e-05 ± 1.5e-05 | 1780 ± 810 |  |  |  | 5.95e-05 ± 1.4e-05 | 7.63e-05 ± 1.8e-05 |
| A39U U57A | 0.0002 ± 1.2e-05 | 4780 ± 530 |  |  | 2.12e-05 ± 7.4e-06 | 7.13e-05 ± 1e-05 | 0.000134 ± 1.5e-05 |
| A53C A64G | 0.00338 ± 0.00072 | 1710 ± 540 | 7.76e-05 ± 1.7e-05 | 0.000218 ± 9.8e-05 | 0.00177 ± 0.00058 | 0.00249 ± 0.0011 | 0.00277 ± 0.00054 |
| G44C U55G | 5.43e-05 ± 1.8e-05 |  |  |  |  | 5.66e-05 ± 2.2e-05 | 4.43e-05 ± 2.1e-05 |
| U47G C71A | 0.00107 ± 0.00043 |  | 5.64e-05 ± 1.4e-05 |  | 0.000443 ± 0.0001 | 0.000556 ± 0.0001 | 0.00146 ± 0.0002 |
| A53U U65C | 0.000266 ± 3.1e-05 | 1370 ± 310 |  |  | 8.76e-05 ± 1.6e-05 | 0.000196 ± 5.3e-05 | 0.000222 ± 4.6e-05 |
| G37A U46G | 0.000363 ± 0.00014 |  |  | 4.31e-05 ± 1.7e-05 | 0.000102 ± 1.4e-05 | 0.000159 ± 2.3e-05 | 0.000421 ± 6.2e-05 |
| A15G U54C | 0.0142 ± 0.0059 |  | 0.000969 ± 0.00018 | 0.0021 ± 0.00098 |  |  | 0.0181 ± 0.0046 |
| G59A U69C | 5.07e-05 ± 2.8e-06 | 943 ± 240 |  |  |  |  | 4.7e-05 ± 1e-05 |
| G13U U55G | 0.00153 ± 0.00021 | 3830 ± 780 | 2.48e-05 ± 7.6e-06 | 6.37e-05 ± 8.5e-06 | 0.000195 ± 2.5e-05 | 0.000643 ± 7.1e-05 | 0.00109 ± 0.00011 |
| A33U C67A | 7.68e-05 ± 3.3e-06 | 4870 ± 530 |  |  |  | 2.58e-05 ± 7.7e-06 | 5.17e-05 ± 6e-06 |
| A14G G32U | 0.00512 ± 0.001 | 5710 ± 1400 | 4.82e-05 ± 7.9e-06 | 0.000137 ± 1.8e-05 | 0.000476 ± 5.1e-05 | 0.00158 ± 0.00017 | 0.00329 ± 0.0004 |
| U46G A53G | 0.00499 ± 0.0025 |  | 0.000271 ± 7.8e-05 | 0.000482 ± 0.00011 | 0.00165 ± 0.00049 | 0.00267 ± 0.00089 | 0.00811 ± 0.0028 |
| C34A G51C | < 1e-05 |  | < 1e-05 |  |  |  | < 1e-05 |
| C10U A14C U30A G35A G38A | < 1e-05 |  |  |  |  |  |  |
| C68U C70U | 2.24e-05 ± 7.8e-06 |  |  |  |  | 3.68e-05 ± 7.6e-06 | 1.88e-05 ± 3.8e-06 |
| G29U C58G | 8.52e-05 ± 7.7e-06 | 752 ± 370 |  |  | 3.31e-05 ± 1.6e-05 | 8.3e-05 ± 1.9e-05 | 7.67e-05 ± 9.9e-06 |
